# According to the supplement of paper PMC10065799, “High-throughput profiling of sequence recognition by tyrosine kinases and SH2 domains using bacterial peptide display” (eLife, 2023):
# What was measured:
# EPHB2 = EPHB2 (UniProt P29323); assay: phosphorylation enrichment, bacterial display (enrichment ratio); higher = better substrate or ligand; peptides without Tyr show the background
# FGFR1 = FGFR1 (UniProt P11362); assay: as above
# FGFR3 = FGFR3 (UniProt P22607); assay: as above
# AncSZ = assay: as above
# Hck = Hck (UniProt P08631); assay: as above
# EPHB1 = EPHB1 (UniProt P54762); assay: as above
# Jak2 = Jak2 (UniProt O60674); assay: as above
# Fer (mouse) = assay: as above
# MERTK = MERTK (UniProt Q12866); assay: as above
# c-Src = assay: as above
# Fes = Fes (UniProt P07332); assay: as above
# Fyn = Fyn (UniProt P06241); assay: as above
# c-Abl (mouse) = assay: as above
# SHP2-C SH2 = assay: SH2 binding enrichment of the phosphorylated peptide, bacterial display (enrichment ratio); higher = better substrate or ligand; peptides without Tyr show the background
# Grb2 SH2 = Grb2 SH2 (UniProt P62993); assay: as above
# c-Src SH2 = assay: as above
# 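For SH2 binding enrichment of the phosphorylated peptide, bacterial display in this document: peptide library displayed on the E. coli surface as eCPX fusions, selected cells deep-sequenced, score is each peptide's frequency after selection divided by its frequency in the input.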
# 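For phosphorylation enrichment, bacterial display in this document: 11-residue human phosphosite peptides and single-mutation variants displayed on the E. coli surface, counted by deep sequencing, each peptide's frequency after selection divided by its frequency in the unselected input library; frequency after pTyr selection over input frequency; kinase dosed for 20-30% of maximal phosphorylation in three min.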
# Chain of Grb2 SH2 (P62993 whole entry, looked up): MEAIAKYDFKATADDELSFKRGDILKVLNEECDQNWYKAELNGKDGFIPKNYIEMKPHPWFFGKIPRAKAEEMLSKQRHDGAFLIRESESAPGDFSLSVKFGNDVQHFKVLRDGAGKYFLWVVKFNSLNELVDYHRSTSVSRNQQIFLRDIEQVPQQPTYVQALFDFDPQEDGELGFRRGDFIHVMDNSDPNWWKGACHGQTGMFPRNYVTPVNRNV
# Chain of Hck (P08631 whole entry, looked up): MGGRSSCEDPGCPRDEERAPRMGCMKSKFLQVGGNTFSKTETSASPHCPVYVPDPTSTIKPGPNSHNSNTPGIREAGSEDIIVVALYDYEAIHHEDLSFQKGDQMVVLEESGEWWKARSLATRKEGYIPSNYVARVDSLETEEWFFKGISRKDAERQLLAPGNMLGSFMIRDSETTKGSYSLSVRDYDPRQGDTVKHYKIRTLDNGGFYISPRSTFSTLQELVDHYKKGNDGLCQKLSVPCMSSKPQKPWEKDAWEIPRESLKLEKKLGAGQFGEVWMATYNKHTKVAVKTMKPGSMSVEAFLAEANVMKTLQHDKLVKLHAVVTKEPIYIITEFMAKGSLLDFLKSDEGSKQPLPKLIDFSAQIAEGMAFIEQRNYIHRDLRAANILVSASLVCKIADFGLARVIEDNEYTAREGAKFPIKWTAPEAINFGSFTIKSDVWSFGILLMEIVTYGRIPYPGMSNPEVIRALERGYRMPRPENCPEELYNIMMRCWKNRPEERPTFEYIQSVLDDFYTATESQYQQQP
# Chain of FGFR3 (P22607 whole entry, looked up): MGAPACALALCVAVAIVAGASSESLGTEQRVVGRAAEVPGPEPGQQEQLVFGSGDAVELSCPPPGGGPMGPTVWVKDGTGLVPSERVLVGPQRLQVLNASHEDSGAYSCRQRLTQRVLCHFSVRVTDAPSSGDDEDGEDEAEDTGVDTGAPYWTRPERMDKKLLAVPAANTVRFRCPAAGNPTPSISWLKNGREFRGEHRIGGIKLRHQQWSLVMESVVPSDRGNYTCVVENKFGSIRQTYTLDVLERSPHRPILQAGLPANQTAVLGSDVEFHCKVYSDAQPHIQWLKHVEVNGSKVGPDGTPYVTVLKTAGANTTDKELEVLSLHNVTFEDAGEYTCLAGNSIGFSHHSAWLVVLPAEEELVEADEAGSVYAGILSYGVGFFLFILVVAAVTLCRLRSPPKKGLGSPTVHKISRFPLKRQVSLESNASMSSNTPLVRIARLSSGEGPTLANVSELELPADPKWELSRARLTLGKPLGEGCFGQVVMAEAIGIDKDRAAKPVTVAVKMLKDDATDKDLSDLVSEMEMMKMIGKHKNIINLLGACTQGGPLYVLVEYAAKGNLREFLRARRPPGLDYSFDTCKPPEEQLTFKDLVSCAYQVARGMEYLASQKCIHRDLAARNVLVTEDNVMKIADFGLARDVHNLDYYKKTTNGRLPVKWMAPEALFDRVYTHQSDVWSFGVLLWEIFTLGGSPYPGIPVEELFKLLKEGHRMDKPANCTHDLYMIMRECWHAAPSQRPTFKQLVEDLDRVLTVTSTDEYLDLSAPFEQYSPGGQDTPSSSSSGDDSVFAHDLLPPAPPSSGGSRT
# Chain of FGFR1 (P11362 whole entry, looked up): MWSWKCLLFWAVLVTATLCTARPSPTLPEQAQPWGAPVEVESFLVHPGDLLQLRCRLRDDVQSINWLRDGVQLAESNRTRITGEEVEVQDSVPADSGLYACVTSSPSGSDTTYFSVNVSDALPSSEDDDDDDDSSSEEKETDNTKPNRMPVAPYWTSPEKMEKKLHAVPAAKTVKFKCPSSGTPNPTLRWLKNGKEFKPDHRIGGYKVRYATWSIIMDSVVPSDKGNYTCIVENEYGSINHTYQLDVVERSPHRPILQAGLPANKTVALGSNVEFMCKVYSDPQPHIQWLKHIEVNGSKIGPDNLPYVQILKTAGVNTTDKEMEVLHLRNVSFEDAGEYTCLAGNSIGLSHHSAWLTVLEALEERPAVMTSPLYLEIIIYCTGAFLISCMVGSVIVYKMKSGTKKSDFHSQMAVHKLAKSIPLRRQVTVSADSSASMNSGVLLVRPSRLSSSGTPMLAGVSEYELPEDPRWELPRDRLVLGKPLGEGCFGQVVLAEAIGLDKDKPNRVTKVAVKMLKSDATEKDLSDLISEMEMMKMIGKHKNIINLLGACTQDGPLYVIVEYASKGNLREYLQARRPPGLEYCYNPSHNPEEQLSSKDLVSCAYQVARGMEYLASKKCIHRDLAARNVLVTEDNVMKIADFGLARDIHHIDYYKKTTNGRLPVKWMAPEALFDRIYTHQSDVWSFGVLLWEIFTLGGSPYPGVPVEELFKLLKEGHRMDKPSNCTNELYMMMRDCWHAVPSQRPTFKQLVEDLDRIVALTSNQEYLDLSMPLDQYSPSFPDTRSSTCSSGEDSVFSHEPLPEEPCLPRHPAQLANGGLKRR
# Chain of Fes (P07332 whole entry, looked up): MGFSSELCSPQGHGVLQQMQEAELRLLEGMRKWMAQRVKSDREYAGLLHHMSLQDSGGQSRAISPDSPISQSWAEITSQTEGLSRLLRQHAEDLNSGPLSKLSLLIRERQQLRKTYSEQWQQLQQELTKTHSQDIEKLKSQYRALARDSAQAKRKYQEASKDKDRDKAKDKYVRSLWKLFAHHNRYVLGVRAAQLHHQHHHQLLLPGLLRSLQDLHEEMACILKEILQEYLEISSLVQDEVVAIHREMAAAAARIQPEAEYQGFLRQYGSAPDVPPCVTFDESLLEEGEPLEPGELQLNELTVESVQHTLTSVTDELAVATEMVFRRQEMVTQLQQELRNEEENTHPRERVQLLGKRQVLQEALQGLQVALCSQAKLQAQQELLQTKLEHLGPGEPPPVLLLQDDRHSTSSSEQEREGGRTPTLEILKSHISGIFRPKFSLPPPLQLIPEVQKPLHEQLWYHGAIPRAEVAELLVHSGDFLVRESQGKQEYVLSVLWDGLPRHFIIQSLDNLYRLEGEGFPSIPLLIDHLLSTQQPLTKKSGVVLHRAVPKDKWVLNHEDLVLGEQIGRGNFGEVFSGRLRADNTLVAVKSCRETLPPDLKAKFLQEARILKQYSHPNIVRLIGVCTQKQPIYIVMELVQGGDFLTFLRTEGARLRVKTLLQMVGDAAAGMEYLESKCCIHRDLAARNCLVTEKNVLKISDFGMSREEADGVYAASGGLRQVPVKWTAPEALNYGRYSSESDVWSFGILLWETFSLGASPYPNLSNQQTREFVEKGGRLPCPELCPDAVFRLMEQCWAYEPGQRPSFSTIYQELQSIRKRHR
# Chain of EPHB2 (P29323 whole entry, looked up): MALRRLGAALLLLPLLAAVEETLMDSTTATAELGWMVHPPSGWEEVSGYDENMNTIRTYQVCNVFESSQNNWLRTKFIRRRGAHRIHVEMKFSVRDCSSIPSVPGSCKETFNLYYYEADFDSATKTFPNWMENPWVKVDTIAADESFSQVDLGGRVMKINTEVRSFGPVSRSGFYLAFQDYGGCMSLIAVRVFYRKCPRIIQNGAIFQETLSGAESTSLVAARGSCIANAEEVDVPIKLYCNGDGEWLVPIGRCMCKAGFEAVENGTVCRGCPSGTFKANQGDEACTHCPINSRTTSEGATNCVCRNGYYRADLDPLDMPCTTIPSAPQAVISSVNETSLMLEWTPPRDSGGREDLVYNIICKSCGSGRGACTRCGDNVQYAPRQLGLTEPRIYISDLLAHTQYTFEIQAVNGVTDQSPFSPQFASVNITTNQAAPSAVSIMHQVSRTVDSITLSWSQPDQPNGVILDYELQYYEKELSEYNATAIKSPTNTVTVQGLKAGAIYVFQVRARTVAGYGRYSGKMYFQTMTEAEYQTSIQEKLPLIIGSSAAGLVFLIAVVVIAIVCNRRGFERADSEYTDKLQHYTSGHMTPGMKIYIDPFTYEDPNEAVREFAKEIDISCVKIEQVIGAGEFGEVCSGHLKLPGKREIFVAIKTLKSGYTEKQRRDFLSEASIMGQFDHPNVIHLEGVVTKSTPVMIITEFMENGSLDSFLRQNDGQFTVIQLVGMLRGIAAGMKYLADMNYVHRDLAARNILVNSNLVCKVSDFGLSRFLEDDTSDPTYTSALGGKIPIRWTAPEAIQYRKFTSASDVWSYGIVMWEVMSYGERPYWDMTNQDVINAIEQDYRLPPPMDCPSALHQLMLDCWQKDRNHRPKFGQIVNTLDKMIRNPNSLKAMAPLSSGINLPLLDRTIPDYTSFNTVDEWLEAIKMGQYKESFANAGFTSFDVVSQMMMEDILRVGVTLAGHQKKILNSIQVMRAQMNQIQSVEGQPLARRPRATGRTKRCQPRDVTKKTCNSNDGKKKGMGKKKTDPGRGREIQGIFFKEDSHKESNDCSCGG
# Chain of Fyn (P06241 whole entry, looked up): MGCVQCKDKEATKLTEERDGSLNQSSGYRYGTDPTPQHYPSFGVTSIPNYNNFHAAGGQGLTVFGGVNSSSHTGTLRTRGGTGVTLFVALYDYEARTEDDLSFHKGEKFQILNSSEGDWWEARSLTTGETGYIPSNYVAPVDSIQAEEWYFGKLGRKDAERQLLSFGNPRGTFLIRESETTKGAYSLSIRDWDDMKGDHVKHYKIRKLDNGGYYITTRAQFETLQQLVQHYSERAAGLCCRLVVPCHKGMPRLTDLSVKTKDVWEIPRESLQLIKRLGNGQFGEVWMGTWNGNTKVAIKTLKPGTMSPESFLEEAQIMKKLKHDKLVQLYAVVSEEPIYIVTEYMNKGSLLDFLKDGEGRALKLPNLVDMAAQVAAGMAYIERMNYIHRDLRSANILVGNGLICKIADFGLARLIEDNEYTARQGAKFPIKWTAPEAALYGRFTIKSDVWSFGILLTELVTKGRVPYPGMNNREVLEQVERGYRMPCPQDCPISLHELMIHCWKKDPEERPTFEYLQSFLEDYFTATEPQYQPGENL
Sequence,phosphorylation enrichment (EPHB2),phosphorylation enrichment (FGFR1),phosphorylation enrichment (FGFR3),phosphorylation enrichment (AncSZ),phosphorylation enrichment (Hck),phosphorylation enrichment (EPHB1),phosphorylation enrichment (Jak2),phosphorylation enrichment (Fer (mouse)),phosphorylation enrichment (MERTK),phosphorylation enrichment (c-Src),phosphorylation enrichment (Fes),phosphorylation enrichment (Fyn),phosphorylation enrichment (c-Abl (mouse)),SH2 binding enrichment (SHP2-C SH2),SH2 binding enrichment (Grb2 SH2),SH2 binding enrichment (c-Src SH2)
EELLHYAIVTP [POC5_Y37],1.49,1.33,1.1,1.48,1.23,3.27,1.04,6.7,5.76,1.09,1.24,0.723,1.56,1.7,0.691,1.13
EEQKKYYNATK [SCN5A_Y1494_M1498T],0.521,1.29,0.554,0.59,0.478,0.543,0.476,0.421,0.411,0.363,0.673,0.467,0.407,0.482,1.01,0.559
EERNTYVNTTL [TEK_Y1102_K1100N],0.531,0.515,0.454,0.694,0.53,0.955,0.551,0.404,0.675,0.43,0.83,0.446,0.638,1.22,20.6,1.45
EFAAGYNVKFD [GPX4_Y123],0.397,0.697,0.544,0.739,0.449,0.425,0.502,0.483,0.461,0.419,0.862,0.465,0.389,0.727,0.707,0.503
EFHRLYEEFTR [PIK3R1_Y467_D464H_YF],2.58,0.573,0.579,0.97,7.49,5.22,0.714,3.87,4.42,5.59,0.941,7.21,0.709,0.782,0.86,0.694
EFISEFCGEII [EZH2_Y641_Y641F],0.719,0.574,0.885,1.52,0.518,0.566,1.44,0.591,0.638,0.618,1.42,0.507,1.22,0.895,1.24,0.743
EFRFIYMAVQH [PTPN11_Y515_Q510E_YF],0.737,0.555,0.864,1.31,1.63,0.881,1.18,1.01,0.519,2.05,1.35,1.42,1.16,0.86,0.912,0.596
EFSNQYKATIG [RAB7A_Y37_K32E],0.413,0.405,0.474,0.455,0.446,0.411,0.52,0.442,0.342,0.311,0.559,0.339,0.524,0.519,0.665,0.316
EHLNRYINDTF [TTLL10_Y446_S448N],0.608,0.525,0.654,0.853,0.49,0.567,1.08,0.53,0.46,0.517,1.08,0.467,0.751,0.728,6.49,1.02
EIEFLYNENTV [IARS1_Y680],0.584,0.645,0.724,1.35,0.622,0.641,1.26,0.632,0.515,0.557,1.26,0.479,0.927,0.619,0.682,0.615
EIIPFYGMSTY [FNDC3B_Y175],0.681,0.454,0.709,0.751,1.1,0.685,0.768,0.88,0.687,0.902,0.875,0.864,0.818,0.539,0.742,4.96
EILLSDLRTGF [TGM1_Y365_Y365D_YF],0.477,0.487,0.56,0.779,0.478,0.42,0.69,0.576,0.378,0.418,0.891,0.464,0.631,0.567,0.7,0.417
EIVHRYVELLD [AP1S3_Y87],0.53,0.41,0.673,0.892,0.504,0.483,0.922,0.499,0.506,0.498,1.06,0.464,0.744,1.11,0.91,21.6
EKEKEYMLPLD [DNM2_Y563_K562E],0.414,0.443,0.604,1.1,0.469,0.48,0.743,0.388,0.442,0.358,0.959,0.421,0.479,0.729,0.834,0.581
EKKDLYKAGEQ [CFH_Y1008_V1007L],0.432,0.356,0.647,0.705,0.374,0.382,0.606,0.431,0.374,0.369,0.799,0.43,0.62,0.655,0.794,0.46
EKKKFYDAKIE [CASP5_Y104_T106A_YF],0.409,0.431,0.534,0.751,0.468,0.4,1.05,0.435,0.349,0.466,0.803,0.369,0.718,0.783,0.686,0.453
EKRDAYVSCLN [GSR_Y150_R153C],0.472,0.563,0.702,0.925,0.53,0.568,0.726,0.437,0.472,0.514,1.1,0.481,0.776,0.934,1.19,0.878

Sequence,phosphorylation enrichment (EPHB2),phosphorylation enrichment (FGFR1),phosphorylation enrichment (FGFR3),phosphorylation enrichment (AncSZ),phosphorylation enrichment (Hck),phosphorylation enrichment (EPHB1),phosphorylation enrichment (Jak2),phosphorylation enrichment (Fer (mouse)),phosphorylation enrichment (MERTK),phosphorylation enrichment (c-Src),phosphorylation enrichment (Fes),phosphorylation enrichment (Fyn),phosphorylation enrichment (c-Abl (mouse)),SH2 binding enrichment (SHP2-C SH2),SH2 binding enrichment (Grb2 SH2),SH2 binding enrichment (c-Src SH2)
ELCSEYRKSRK [SPINK5_Y440],0.489,0.429,0.394,0.562,0.412,0.425,0.474,0.457,0.443,0.375,0.803,0.378,0.555,0.726,1.03,0.484
ELQDDYEDTME [SLC4A1_Y8_M11T],0.836,0.649,0.972,1.47,0.649,0.942,1.47,0.805,0.526,0.603,1.39,0.77,1,0.516,0.802,0.582
ELTTCYRKKCS [CCBE1_Y70_C75S],0.565,0.536,0.501,0.764,0.458,0.431,1.12,0.362,0.467,0.444,0.816,0.454,0.64,0.741,1.25,1.04
ENGPFYASFPP [GDAP2_Y488_T489A_YF],10.4,3.05,2.07,0.819,8.77,9.38,0.951,7.77,11.5,7.57,0.858,9.94,14.9,0.523,0.852,0.744
EPNSRYTYKLE [USH2A_Y3745],0.46,0.438,0.534,0.684,0.439,0.537,0.628,0.27,0.384,0.501,0.895,0.492,0.753,0.768,1.02,0.663
EPSLDYMVTKI [CPS1_Y768],0.727,0.814,0.797,1.22,0.566,0.756,1.05,0.78,0.469,0.582,1.14,0.646,0.606,0.914,1.05,0.379
EQDRAYLEGTC [HLA-C_Y183_L180D],0.574,0.521,0.663,1.1,0.507,0.549,0.978,0.499,0.454,0.519,1.14,0.511,0.84,0.868,0.939,0.771
EQKKNYNAMKK [SCN5A_Y1495_Y1494N],0.561,0.643,0.826,0.847,0.489,0.427,1.01,0.538,0.44,0.524,1.07,0.394,1.1,0.973,0.895,0.597
EQKKYYNAMKK [SCN5A_Y1495],0.332,0.342,0.4,0.551,0.34,0.368,0.613,0.353,0.305,0.34,0.649,0.3,0.519,1.07,0.818,0.85
EQLLDYTRTVQ [INPP5E_Y439_R435Q],0.569,0.515,0.709,0.969,0.542,0.557,0.976,0.494,0.475,0.438,0.815,0.469,0.614,0.732,0.904,0.438
EREFKYDAHNF [OAT_Y50_G51D_YF],0.445,0.643,0.693,0.915,0.558,0.624,0.914,0.832,0.512,0.477,1.02,0.361,0.645,0.629,0.803,0.543
ERPGVHTNVVE [F11_Y608_Y608H],0.769,0.46,0.754,0.794,0.394,0.598,0.777,0.474,0.483,0.388,0.964,0.517,0.717,0.605,0.849,0.491
ERRLIYTSDPK [VPS13D_Y864],0.431,0.486,0.372,0.563,0.39,0.307,0.586,0.43,0.444,0.437,0.64,0.444,0.472,0.663,0.872,0.507
ESAAIYNPVIY [RHO_Y301_K296E],0.944,1.99,1.88,1.01,9.21,0.995,0.793,17.5,3.45,7.21,1.26,8.88,1.15,0.553,0.758,0.464
ETAENYLGYTA [HSPA9_Y181_H184Y],0.684,0.748,0.784,1.17,0.751,0.674,0.839,0.498,0.516,0.678,1.23,0.563,0.691,0.7,0.882,0.557
ETEMLYGSARR [PRC1_Y464_P468R],0.451,0.429,0.601,0.886,4.55,0.416,0.521,1.27,0.38,2.81,0.78,2.66,0.638,0.871,0.853,0.495
